“And” between values parts separate entries of the source, which are not always exact repeats. Equal values may be shown once.
Experiments:
Test in all cases: cell-based or functional assay
plasmin = target: plasmin
[1] = target: recombinant human tryptase (Promega) (human) (UniProt Q15661); conditions: scale: % of the activity in the absence of inhibitor
trypsin = target: trypsin
tissue kallikrein = target: tissue kallikrein

Chain of UniProt Q15661 (Q15661 31-275): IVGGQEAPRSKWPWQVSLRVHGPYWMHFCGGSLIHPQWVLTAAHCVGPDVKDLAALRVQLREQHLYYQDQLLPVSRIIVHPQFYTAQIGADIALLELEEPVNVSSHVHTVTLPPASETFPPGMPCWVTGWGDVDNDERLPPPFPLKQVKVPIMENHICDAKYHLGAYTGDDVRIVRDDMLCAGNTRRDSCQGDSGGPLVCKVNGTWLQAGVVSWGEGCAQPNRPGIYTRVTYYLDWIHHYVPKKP

concentration corresponding with 50% plasmin inhibition (peptide release from resorufin-labelled casein) (plasmin) [µM] | concentration for 50% trypsin inhibition (peptide release from resorufin-labelled casein) (trypsin) [µM] | Substance | concentration corresponding with 50% plasmin inhibition (peptide release from resorufin-labelled casein); one of two values from two assumed molecular masses (12 kDa or 13.5 kDa) (plasmin) | residual catalytic activity of tryptase (n-α-benzoyl-DL-Arg-p-nitroanilide, absorbance at 405 nm) after preincubation with rTdPI [1] | concentration for 50% trypsin inhibition (peptide release from resorufin-labelled casein); one of two values from two assumed molecular masses (12 kDa or 13.5 kDa) (trypsin) | tissue kallikrein activity (n-benzoyl-Pro-Phe-Arg-pNA, absorbance at 410 nm); percent inhibition at 7.5 µM rTdPI (% inhibition at 7.5 µM) (tissue kallikrein)
– | – | Recombinant tick-derived protease inhibitor protein (rTdPI), histidine-tagged | 0.32 µM and 0.43 µM | 33 | 0.044 µM and 0.033 µM | 50
0.23 | 0.026 | soybean trypsin inhibitor (from UniProt P01070 25-205) | – | – | – | –
